Target: extracellular signal-regulated kinase (ERK1/2), endogenous in mouse spinal dorsal horn (mouse (endogenous in spinal dorsal horn)) (UniProt P63085)

B1: glycine receptor α1^ins subunit, endogenous in mouse spinal dorsal horn (receptor)
chain: ARSAPKPMSPSDFLDKLMGRTSGYDARIRPNFKGPPVNVSCNIFINSFGSIAETTMDYRVNIFLRQQWNDPRLAYNEYPDDSLDLDPSMLDSIWKPDLFFANEKGAHFHEITTDNKLLRISRNGNVLYSIRITLTLACPMDLKNFPMDVQTCIMQLESFGYTMNDLIFEWQEQGAVQVADGLTLPQFILKEEKDLRYCTKHYNTGKFTCIEARFHLERQMGYYLIQMYIPSLLIVILSWISFWINMDAAPARVGLGITTVLTMTTQSSGSRASLPKVSYVKAIDIWMAVCLLFVFSALLEYAAVNFVSRQHKELLRFRRKRRHHKSPMLNLFQDDEGGEGRFNFSAYGMGPACLQAKDGISVKGANNNNTTNPPPAPSKSPEEMRKLFIQRAKKIDKISRIGFPMAFLIFNMFYWIIYKIVRREDVHNK
GlyR-IPSCs in spinal slices from formalin-injected mice, with bath application of TAT-pep-α1^ins (% of baseline): 145

From PMC6703679
